The target in series [1] is T1, BMP7 (Homo sapiens, UniProt P18075).
T1 sequence (P18075 293-431): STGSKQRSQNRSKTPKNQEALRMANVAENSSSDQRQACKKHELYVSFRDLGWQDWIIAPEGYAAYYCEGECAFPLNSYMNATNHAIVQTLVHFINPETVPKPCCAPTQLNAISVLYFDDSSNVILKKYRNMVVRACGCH
As to the kind of experiment: Biacore ligand binding profile, ActRIIA-Fc:ALK4-Fc heterodimer vs homodimers, anti-Fc capture (Example 17, Table 14). The settings on record: ligand BMP7, Table 14. Here is the method:
(§1) A Biacore™-based binding assay was used to compare ligand binding selectivity of the ActRIIA-Fc:ALK4-Fc heterodimeric complex described above with that of ActRIIA-Fc and ALK4-Fc homodimeric complexes. The ActRIIA-Fc:ALK4-Fc heterodimer, ActRIIA-Fc homodimer, and ALK4-Fc homodimer were independently captured onto the system using an anti-Fc antibody. Ligands were injected and allowed to flow over the captured receptor protein. Results are summarized in Table 14 below, in which ligand off-rates (kd) most indicative of effective ligand traps are denoted in bold.
(In general: Surface plasmon resonance follows binding to a sensor surface in real time, without labels.)

Series [2] addresses T2, activin AB (Homo sapiens, UniProt P08476+P09529).
T2 sequence (P08476 311-426): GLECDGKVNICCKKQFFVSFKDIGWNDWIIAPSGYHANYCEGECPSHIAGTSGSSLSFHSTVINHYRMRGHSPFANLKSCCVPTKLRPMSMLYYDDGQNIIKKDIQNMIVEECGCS
T2 sequence (P09529 293-407): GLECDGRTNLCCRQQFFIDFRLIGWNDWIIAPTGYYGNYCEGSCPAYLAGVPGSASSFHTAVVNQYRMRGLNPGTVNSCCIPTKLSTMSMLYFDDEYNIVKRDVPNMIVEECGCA
Described as above. The settings on record: for ka / kd: ligand Activin AB, Table 14. Here is the method: as §1

For series [3], the target named is T3, BMP9 (Homo sapiens, UniProt Q9UK05).
T3 sequence (Q9UK05 320-429): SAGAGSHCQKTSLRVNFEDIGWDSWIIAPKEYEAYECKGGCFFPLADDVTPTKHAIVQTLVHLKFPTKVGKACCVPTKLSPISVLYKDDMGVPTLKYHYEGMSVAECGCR
The description is as above. The settings on record: ligand BMP9, Table 14. The protocol:
as §1

The target in series [4] is T4, activin B (Homo sapiens, UniProt P09529).
T4 sequence (P09529 293-407): T2 sequence (P09529 293-407)
The series is described as above. The settings on record: for activin B binding: Example 17; for ka / kd: ligand Activin B, Table 14. Here is the method: as §1

In series [5] the target is T5, BMP6 (Homo sapiens, UniProt P22004).
T5 sequence (P22004 375-513): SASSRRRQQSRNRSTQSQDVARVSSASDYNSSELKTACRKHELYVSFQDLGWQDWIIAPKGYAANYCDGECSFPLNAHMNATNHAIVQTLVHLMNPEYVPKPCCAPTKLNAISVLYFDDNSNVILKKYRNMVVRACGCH
The description is as above. The settings on record: ligand BMP6, Table 14. Here is the method: as §1

Series [6] addresses T6, GDF11 (Homo sapiens, UniProt O95390).
T6 sequence (O95390 299-407): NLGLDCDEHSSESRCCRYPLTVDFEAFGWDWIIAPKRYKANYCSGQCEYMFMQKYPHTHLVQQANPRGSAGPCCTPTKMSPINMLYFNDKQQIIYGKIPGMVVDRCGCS
The description is as above. The settings on record: for ka / kd: ligand GDF11, Table 14. The protocol:
as §1

Series [7] addresses T7, activin AC (Homo sapiens, UniProt P08476+P55103).
T7 sequence (P08476 311-426): T2 sequence (P08476 311-426)
T7 sequence (P55103 237-352): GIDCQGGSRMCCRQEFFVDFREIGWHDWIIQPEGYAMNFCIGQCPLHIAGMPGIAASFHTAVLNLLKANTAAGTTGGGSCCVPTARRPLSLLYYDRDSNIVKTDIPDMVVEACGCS
The series is described as above. The settings on record: for ka / kd: ligand Activin AC, Table 14. The protocol: as §1

Series [8] addresses T8, GDF8 (Homo sapiens, UniProt O14793).
T8 sequence (O14793 267-375): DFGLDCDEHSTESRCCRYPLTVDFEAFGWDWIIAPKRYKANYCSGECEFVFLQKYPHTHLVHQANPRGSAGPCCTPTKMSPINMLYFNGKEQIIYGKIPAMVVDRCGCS
Described as above. The settings on record: ligand GDF8, Table 14. Here is the method:
as §1

Series [9] concerns the target T9, activin A (Homo sapiens, UniProt P08476).
T9 sequence (P08476 311-426): T2 sequence (P08476 311-426)
Described as above. The settings on record: for ka / kd: ligand Activin A, Table 14. The protocol: as §1

For series [10], the target named is T10, GDF3 (Homo sapiens, UniProt Q9NR23).
T10 sequence (Q9NR23 251-364): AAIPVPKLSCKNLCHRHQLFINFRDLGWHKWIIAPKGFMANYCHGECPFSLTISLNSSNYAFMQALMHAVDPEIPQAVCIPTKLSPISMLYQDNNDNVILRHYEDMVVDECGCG
Described as above. The settings on record: ligand GDF3, Table 14. Here is the method:
as §1

The target of series [11] is T11, BMP10 (Homo sapiens, UniProt O95393).
T11 sequence (O95393 317-424): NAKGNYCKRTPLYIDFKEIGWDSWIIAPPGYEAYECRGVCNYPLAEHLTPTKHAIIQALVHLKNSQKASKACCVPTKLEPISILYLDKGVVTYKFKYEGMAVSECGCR
The description is as above. Here is the method: as §1

Series [12] addresses T5, BMP6. As to the kind of experiment: Similar Biacore binding assay (Example 1).
Series [13] addresses T4, activin B. In words: Similar Biacore binding assay (Example 1).
Series [14] can be described thus: Pharmacokinetic studies in rats. The class given is in vivo. Here is the method:
The ActRIIA-hFc was very stable in pharmacokinetic studies. Rats were dosed with 1 mg/kg, 3 mg/kg, or 10 mg/kg of ActRIIA-hFc protein, and plasma levels of the protein were measured at 24, 48, 72, 144 and 168 hours. In a separate study, rats were dosed at 1 mg/kg, 10 mg/kg, or 30 mg/kg.

Series [15] in a line: Pharmacokinetics in cynomolgus monkeys. The class given is in vivo.
Series [16] deals with T8, GDF8. In words: Similar Biacore binding assay (Example 1).
Series [17] has as its target T11, BMP10. In words: Similar Biacore binding assay (Example 1).
[18] abbreviates: initial administration of 1 mg/kg.
[19] abbreviates: initial administration of 10 mg/kg.

Data on three substances can be found in US20230129812A1, “COMPOSITIONS AND METHODS FOR TREATING PULMONARY HYPERTENSION” (Acceleron Pharma Inc., priority 2020, published 2023).

For “ActRIIA-Fc homodimer: ActRIIA-Fc homodimeric complex used as comparator in Example 17”, the ka in series [1] was determined as 8.9e+06 M⁻¹ s⁻¹; in series [2], 2.8e+07 M⁻¹ s⁻¹; in series [4] it was 1.1e+07 M⁻¹ s⁻¹; in series [5], 2.7e+08 M⁻¹ s⁻¹; in [6], 7.3e+07 M⁻¹ s⁻¹; in series [7], 2.2e+07 M⁻¹ s⁻¹. In addition, the ka was 1.4e+06 M⁻¹ s⁻¹ in series [8]; 1.4e+07 M⁻¹ s⁻¹ in series [9]; 1.5e+06 M⁻¹ s⁻¹ in series [10]; 2.9e+07 M⁻¹ s⁻¹ in series [11] (ligand BMP10, Table 14). The kd was 0.033 s⁻¹ in series [1]; 0.00026 s⁻¹ in series [2]; “Transient*” in series [3]; 0.00011 s⁻¹ in series [4]; 0.022 s⁻¹ in series [5]; 0.00092 s⁻¹ in series [6]. Besides, the kd in [7] worked out at 0.0079 s⁻¹; in [8] it was 0.0014 s⁻¹; in series [9], 0.00062 s⁻¹; in series [10], 0.0036 s⁻¹; in series [11] (ligand BMP10, Table 14) it was 0.0025 s⁻¹. In series [4], the “activin B binding” value is “highest affinity”.
“ActRIIA-hFc: extracellular domain of human ActRIIa fused to a human Fc domain with a minimal linker; homodimer”: the “affinity for BMP6” value in series [12] is given as “high to moderate affinity”. Moreover, the “affinity for activin B” value in [13] is recorded as “high to moderate affinity”. In series [14], this substance came in with a serum half-life of 11 to 14 days. The figures for the “circulating levels of the drug after two weeks” value in series [14] (setting [18]) and in [14] (setting [19]) were 11 µg/mL and 110 µg/mL, respectively. Further, the plasma half-life entry in series [15] is “greater than 14 days”. Moreover, the entries for the “circulating levels of the drug” value in series [15] (setting [18]), in series [15] (setting [19]) and in series [15] (initial administration of 30 mg/kg) were 25 µg/mL, 304 µg/mL and 1440 µg/mL, respectively. Besides, the “affinity for GDF8” value in series [16] is “high to moderate affinity”. Moreover, the “affinity for BMP10” value in [17] is “high to moderate affinity”.
With “ActRIIA-Fc:ALK4-Fc heterodimer: soluble heteromeric complex of extracellular domains of human ActRIIA and human ALK4, each separately fused to an Fc domain with a linker”, the ka in series [1] came to 2e+07 M⁻¹ s⁻¹; in series [2], 1.8e+07 M⁻¹ s⁻¹; in [4], 9.5e+06 M⁻¹ s⁻¹; in series [5], 5.4e+06 M⁻¹ s⁻¹; in [6] it was 3e+07 M⁻¹ s⁻¹; in series [7] it was 3.2e+06 M⁻¹ s⁻¹. Also, the ka came to 1.8e+07 M⁻¹ s⁻¹ in series [8], 7.4e+06 M⁻¹ s⁻¹ in [9] and 4.9e+07 M⁻¹ s⁻¹ in series [10]. For the same substance, the kd was 0.072 s⁻¹ in [1]; 0.00023 s⁻¹ in series [2]; 0.00048 s⁻¹ in [4]; 0.012 s⁻¹ in series [5]; 0.00065 s⁻¹ in [6]; 0.00054 s⁻¹ in series [7]. The kd in series [8] was 0.0028 s⁻¹; in series [9], 0.00024 s⁻¹; in series [10], 0.0048 s⁻¹; in series [11] (ligand BMP10, Table 14), “Transient*”. In addition, the “activin AB binding” value in [2] (Example 17) was “strong binding”. In addition, the KD entry in [3] is given as “No binding”. Moreover, in [4], the “activin B binding” value is “reduced affinity (albeit still within the high-affinity range)”. Further, the “GDF11 binding” value in series [6] (Example 17) is “strong binding”. Moreover, the “activin AC binding” value in series [7] (Example 17) is reported as “particularly enhanced binding”. Further, the “activin A binding” value in [9] (Example 17) is reported as “enhanced binding”. For the same substance, the “BMP10 binding” value in series [11] (Example 17) is “markedly reduced binding”.
